As usually defined, the Kd is a measure of binding affinity in units of concentration. Broadly, the koff is the first-order rate constant of dissociation. The kon is the second-order rate constant of association.

Kd, koff and kon data for one molecule are collected here from publication PMC5974087, “The RPAP3-Cterminal domain identifies R2TP-like quaternary chaperones” (Nature Communications, 2018).

The target of the assay is T1, recombinant RUVBL1-RUVBL2 complex (His_RUVBL1_Flag_RUVBL2) (human, UniProt Q9Y265 1-456; Q9Y230 1-463).
T1 construct: Purified predominantly as a dodecamer; hetero-hexamers and hetero-dodecamers in native MS; the SPR fit counts one hexamer; The methods tell different things of the RUVBL2 tag (N-terminal FLAG with TEV site; 3xFLAG in the NMR methods); also called RUVBL1/2; RUVBL1/2 hetero-multimers; source: E. coli (DE3), co-expressed, purified (HisTrap, anti-Flag M2 gel, Superdex S200, Superose 6); not shown: …
T1 sequence (Q9Y265 whole entry, chain 1 of 2): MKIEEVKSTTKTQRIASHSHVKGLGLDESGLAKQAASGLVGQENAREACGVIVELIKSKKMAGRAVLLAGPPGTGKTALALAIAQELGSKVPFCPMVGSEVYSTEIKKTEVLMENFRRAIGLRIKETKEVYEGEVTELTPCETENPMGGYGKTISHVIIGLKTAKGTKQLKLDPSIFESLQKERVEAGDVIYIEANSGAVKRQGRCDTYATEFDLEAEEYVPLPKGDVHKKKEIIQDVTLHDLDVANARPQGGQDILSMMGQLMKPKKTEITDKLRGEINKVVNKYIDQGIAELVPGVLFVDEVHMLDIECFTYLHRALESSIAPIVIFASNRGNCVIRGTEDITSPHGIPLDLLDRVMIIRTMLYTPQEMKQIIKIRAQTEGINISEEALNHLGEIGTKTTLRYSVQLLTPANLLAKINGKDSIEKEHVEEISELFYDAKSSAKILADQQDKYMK
T1 sequence (Q9Y230 whole entry, chain 2 of 2): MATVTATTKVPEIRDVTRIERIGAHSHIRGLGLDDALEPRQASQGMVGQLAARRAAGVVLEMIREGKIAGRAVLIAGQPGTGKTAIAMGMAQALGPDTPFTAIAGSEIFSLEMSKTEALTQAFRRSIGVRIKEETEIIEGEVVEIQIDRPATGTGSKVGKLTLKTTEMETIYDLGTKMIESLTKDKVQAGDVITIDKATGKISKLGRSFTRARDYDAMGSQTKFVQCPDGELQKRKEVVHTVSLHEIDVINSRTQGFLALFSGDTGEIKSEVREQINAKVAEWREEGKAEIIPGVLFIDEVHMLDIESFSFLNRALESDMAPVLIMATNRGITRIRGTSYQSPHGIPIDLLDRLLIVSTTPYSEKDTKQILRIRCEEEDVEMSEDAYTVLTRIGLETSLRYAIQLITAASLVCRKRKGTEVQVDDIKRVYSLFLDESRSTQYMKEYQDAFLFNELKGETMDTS
Description: SPR; RPAP3-Cter amine-coupled on CM5; RUVBL1-RUVBL2 complex injected, 10 concentrations up to 75.2 nM; 20 mM NaKPi pH 7.5, 150 mM NaCl, 5 mM MgCl2, 1 mM DTT, 0.05% P20; 25 °C; 1:1 Langmuir model counting one hexamer of RUVBL1/2; Biacore 4000. The note with it: both partners purified. (Surface plasmon resonance follows binding to a sensor surface in real time, without labels.)

B1: RPAP3_(535-665), C-terminal domain of human RPAP3 (domain or fragment, UniProt Q9H6T3 535-665, looked up)
chain: AQFATTVLPPIPANSFQLESDFRQLKSSPDMLYQYLKQIEPSLYPKLFQKNLDPDVFNQIVKILHDFYIEKEKPLLIFEILQRLSELKRFDMAVMFMSETEKKIARALFNHIDKSGLKDSSVEELKKRYGG
modifications: 13C/15N isotope labelling in the NMR samples
notes: RPAP3, human, residues 535-665; numbering of isoform 1; Vector pnEA-3CH; also called RPAP3-Cter; RPAP3 C-terminal domain; source: E. coli (DE3) pRARE2, purified (TALON, HRV-3C cleavage, S75 size exclusion)
B1: the equilibrium dissociation constant (Kd) was 4.18 nM, the off-rate constant (koff) was 0.00112 s⁻¹ and the kon is 297000 M⁻¹ s⁻¹.
